From US7897569B2, “Use of HMGB fragments as anti-inflammatory agents” (The Feinstein Institute for Medical Research, priority 2001, dated 2011)

Experiments:
RAW 264.7 cells [1] = assay: 125I-HMGB1 cell surface binding to RAW 264.7 cells; set-up: species or system murine; details: 4° C.
Protocol: Purified HMGB1 protein (10 μg) was radiolabeled with 0.2 mCi of carrier-free ^125I (NEN Life Science products Inc., Boston, Mass.) using Iodo-beads (Pierce, Rockford, Ill.) according to the manufacturer's instructions. ^125I-HMGB1 protein was separated from un-reacted ^125I by gel chromatography columns (P6 Micro Bio-Spin Chromatography Columns, Bio-Rad Laboratories, Hercules, Calif.) previously equilibrated with 300 mM sodium chloride, 17.5 mM sodium citrate, pH 7.0 and 0.1% bovine serum albumin (BSA). The specific activity of the eluted HMGB1 was about 2.8×10^6 cpm/μg protein. […] The radioactivity in the lysate was then measured using a gamma counter. Specific binding was determined as total binding minus the radioactivity obtained in the presence of an excess amount of unlabeled HMGB1 or A box proteins.
To determine whether the HMGB1 A box acts as an antagonist by displacing HMGB1 binding, ^125I-labeled-HMGB1 was added to macrophage cultures and binding was measured at 4° C. after 2 hours. […] The specificity of binding was assessed as described in Example 1.
In addition, ^125I-HMG-1 binding was measured in RAW 264.7 cells plated on 24-well dishes and incubated with ^125I HMGB1 alone or in the presence of unlabeled HMGB1 or A box. […] The data are expressed as the percent of total counts obtained in the absence of unlabeled HMGB1 proteins (2,382,179 CPM/well).

RAW 264.7 cells [2] = assay: TNF mRNA expression in RAW 264.7 cells (RNase protection assay); format: cell-based, murine; details: 10 μg/ml
Protocol: The kinetics of B box-induced TNF release was also examined. TNF release and TNF mRNA expression was measured in RAW 264.7 cells induced by B box polypeptide or GST tag polypeptide only used as a control (vector) (10 μg/ml) for 0 to 48 hours. Supernatants were analyzed for TNF protein levels by an L929 cytotoxicity assay (N=3-5) as described herein. For mRNA measurement, cells were plated in 100 mm plate and treated in Opti-MEM I medium containing B box polypeptide or the vector alone for 0, 4, 8, or 24 hours, as indicated in FIG. 2D. The vector only sample was assayed at the 4 hour time point. Cells were scraped off the plate and total RNA was isolated by RNAzol B method in accordance with the manufacturer's instructions (Tel-Test “B”, Inc., Friendswood, Tex.). TNF (287 bp) was measured by RNase protection assay (Ambion, Austin, Tex.). Equal loading and the integrity of RNA was verified by ethidium bromide staining of the RNA sample on agarose-formaldehyde gel. […] TNF mRNA expression was maximal at 4 hours and decreased at 8 and 24 hours. […] A similar study was carried out measuring TNF protein released from RAW 264.7 cells 0, 4, 8, 24, 32 or 48 hours after administration of B box or vector only (GST tag), using the L929 cytotoxicity assay described herein. […] Data are representative of three separate experiments.

HMGB1 = assay: A box antagonism of full length HMGB1 TNF release in RAW 264.7 macrophage cultures (ELISA); format: cell-based; details: co-addition with HMGB1, 16 hours, polymyxin B
Protocol: Antagonism of full length HMGB1 activity by HMGB1 A box or GST tag (vector control) was also determined by measuring TNF release from RAW 264.7 macrophage cultures stimulated by co-addition of A box with full length HMGB1. RAW 264.7 macrophage cells (ATCC) were seeded into 24-well tissue culture plates and used at 90% confluence. The cells were treated with HMGB1, and/or A boxes as indicated for 16 hours in Optimum I medium (Life Technologies, Grand Island, N.Y.) in the presence of polymyxin B (100 units/ml, Sigma, St. Louis, Mo.) and supernatants were collected for TNF measurement (mouse ELISA kit from R&D System Inc, Minneapolis, Minn.). TNF-inducing activity was expressed as a percentage of the activity achieved with HMG-1 alone. FIG. 4B is a histogram of the effect of HMGB1, alone, A box alone, Vector (control) alone, HMGB1 in combination with A box, and HMGB1 in combination with vector.

B1: HMGB1: Recombinant full length human HMGB1, GST fusion system, SEQ ID NO:18; recombinant rat HMGB1 used in some experiments (protein)
chain: MGKGDPKKPTGKMSSYAFFVQTCREEHKKKHPDASVNFSEFSKKCSERWKTMSAKEKGKFEDMAKADKARYEREMKTYIPPKGETKKKFKDPNAPKRLPSAFFLFCSEYRPKIKGEHPGLSIGDVAKKLGEMWNNTAADDKQPYEKKAAKLKEKYEKDIAAYRAKGKPDAAKKGVVKAEKSKKKKEEEEDEEDEEDEEEEEDEEDEEDEEEDDDDE
modifications: GST fusion
notes: recombinant rat HMGB1 used in some experiments
125I-HMGB1 binding kinetics (RAW 264.7 cells [1]; RAW 264.7 cells): saturable first order binding kinetics

B2: B box: Human HMGB1 mutant containing only the B box, SEQ ID NO:20 (protein)
chain: FKDPNAPKRLPSAFFLFCSEYRPKIKGEHPGLSIGDVAKKLGEMWNNTAADDKQPYEKKAAKLKEKYEKDIAAY
time of maximal TNF mRNA expression (RAW 264.7 cells [2]): 4 h
TNF mRNA expression (RAW 264.7 cells [2]; 0-24 hours (vector at 4 hours)): increased significantly

B3: A box: Human HMGB1 mutant containing only the A box, SEQ ID NO:21 (A box SEQ ID NO:22) (protein)
chain: MGKGDPKKPTGKMSSYAFFVQTCREEHKKKHPDASVNFSEFSKKCSERWKTMSAKEKGKFEDMAKADKARYEREMKTYIPPKGET
effect on TNF stimulating activity of full length HMGB1 (HMGB1): significantly attenuated
displacement of 125I-HMGB1 binding (RAW 264.7 cells [1]; 5,000 molar excess unlabeled A box, 2 hours): competitive antagonist of HMGB1 activity in vitro
